Assay results published in patent US20110092413A1, “Albumin-Fused Kunitz Domain Peptides” (Novozymes Biopharma DK A/S, priority 2002, published 2011).
pKi: −log10 of the molar value.

Tests used:
Serum half-time of DX-88 = settings: in vivo
human plasma kallikrein = human plasma kallikrein (Homo sapiens, UniProt P03952); assay: DX-88 inhibition of human plasma kallikrein; assay type: biochemical
[1] = DX-88 tested in the clinic for treatment of hereditary angioedema (HAE); assay type: in vivo, human
[2] = Pharmacokinetic study in rabbits: plasma clearance of 125I-labeled protein, SEC of plasma
Text: (§1) After radiolabeling, the two labeled protein preparations were purified from unbound label by size exclusion chromatography (SEC). Fractions from the SEC column having the highest radioactivity were pooled. The purified, radiolabeled preparations were characterized for specific activity by scintillation counting and for purity by SEC using a Superose-12 column equipped with an in-line radiation detector.
(§2) New Zealand White rabbits (ca. 2.5 Kg) were used for clearance measurements, with one animal each used for of the two labeled protein preparations. The radiolabeled preparation was injected into the animal via an ear vein. One blood sample was collected per animal per time point with early time points at approximately 0, 7, 15, 30, and 90 minutes and later time points at 4, 8, 16, 24, 48, 72, 96, 144, 168, and 192 hours. Samples (about 0.5 ml) were collected into anticoagulant (EDTA) tubes. Cells were separated from the plasma/serum fraction by centrifugation. The plasma fraction was divided into two aliquots. One plasma aliquot was stored at −70° C. and the other aliquot was kept at 4° C. for immediate analyses. Sample analyses included radiation counting for clearance rate determinations and SEC chromatography for in vivo stability.

[3] = rabbit, in vivo
Text: as §1, §2

[4] = target: T1, human neutrophil elastase (Homo sapiens, UniProt P08246); settings: Table 4, Biological Activity; read-out: Inhibition of human neutrophil elastase, Ki; cited from earlier work
T1 sequence (P08246 30-267): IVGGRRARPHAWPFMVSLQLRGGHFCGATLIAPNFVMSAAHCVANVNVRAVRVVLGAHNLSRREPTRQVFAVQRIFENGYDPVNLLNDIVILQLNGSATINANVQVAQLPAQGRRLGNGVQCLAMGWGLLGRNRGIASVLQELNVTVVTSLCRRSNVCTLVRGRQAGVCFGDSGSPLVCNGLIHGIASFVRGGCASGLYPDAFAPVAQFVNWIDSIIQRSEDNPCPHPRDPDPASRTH

Pseudomonas aeruginosa = settings: rat model of CF, after seven days of treatment (Cantin and Woods 1999); cited from earlier work
[5] = about 840 mg BPTI, 80 open-heart surgery patients (Fraedrich et al.); cited from earlier work

Sequence of human plasma kallikrein (P03952 391-638 limits assumed): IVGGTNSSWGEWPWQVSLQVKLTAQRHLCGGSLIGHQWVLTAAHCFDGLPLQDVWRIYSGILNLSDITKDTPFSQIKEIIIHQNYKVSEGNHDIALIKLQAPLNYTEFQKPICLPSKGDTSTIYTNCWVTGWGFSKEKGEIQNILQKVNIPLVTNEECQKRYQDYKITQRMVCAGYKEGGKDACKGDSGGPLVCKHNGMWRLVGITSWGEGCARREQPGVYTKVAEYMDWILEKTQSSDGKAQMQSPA
Sequence of human plasma kallikrein (P03952 20-390 partner limits assumed): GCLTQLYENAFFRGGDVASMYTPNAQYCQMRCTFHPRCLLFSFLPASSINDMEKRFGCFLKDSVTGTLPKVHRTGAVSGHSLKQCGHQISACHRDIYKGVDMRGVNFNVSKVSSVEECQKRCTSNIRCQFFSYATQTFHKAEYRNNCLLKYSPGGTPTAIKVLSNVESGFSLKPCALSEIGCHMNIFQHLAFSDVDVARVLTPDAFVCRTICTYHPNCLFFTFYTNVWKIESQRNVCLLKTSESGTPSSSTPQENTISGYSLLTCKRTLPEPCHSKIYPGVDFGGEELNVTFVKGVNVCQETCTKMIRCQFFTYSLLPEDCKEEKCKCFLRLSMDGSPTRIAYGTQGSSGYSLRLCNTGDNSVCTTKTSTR

## DX-88: Kunitz domain derived from the first Kunitz domain of human LACI, inhibits human plasma kallikrein, SEQ ID NO:48 (EAMHSFCAFKADDGPCRAAHPRWFFNIFTRQCEEFIYGGCEGNQNRFESLEECKKMCTRD; Description of Sequence DX-88 Kunitz domain peptide)
Serum half-time of DX-88
  serum half-time: not more than 1 hour
Human plasma kallikrein
  pKi: ~10.40
[1]
  initial clinical data in HAE: safe and effective

## DX-890: Kunitz domain peptide, inhibitor of human neutrophil elastase, SEQ ID NO:20 (EACNLPIVRGPCIAFFPRWAFDAVKGKCVLFPYGGCQGNGNKFYSEKECREYCGVP; Description of Sequence DX-890 Kunitz domain peptide)
[2]; FIG. 6
  in vivo stability by SEC analysis of plasma: relatively rapid association of label with higher molecular weight plasma components
[2]; restated in hours
  T1/2β: 2.75 h
[3]
  % α: 75%
  % β: 25%
[4]
  pKi: ~11.30

## alpha1 antitrypsin
Pseudomonas aeruginosa
  bacterial counts: 0.2±0.4

## bovine pancreatic trypsin inhibitor [BPTI]
[5]
  decrease of mean amount transfused: 74%
  reduction of blood loss: almost half
